Target: the molecule itself
Assay: cryo-EM structure; PDE3A-SLFN12 (K213R) complex purified from nauclefine-treated HeLa cells; single-particle, C2 symmetry, 3.2 Å

B1: phosphodiesterase 3A (PDE3A), endogenous (enzyme, human (endogenous in HeLa), UniProt Q14432 1-1141, looked up)
chain: MAVPGDAARVRDKPVHSGVSQAPTAGRDCHHRADPASPRDSGCRGCWGDLVLQPLRSSRKLSSALCAGSLSFLLALLVRLVRGEVGCDLEQCKEAAAAEEEEAAPGAEGGVFPGPRGGAPGGGARLSPWLQPSALLFSLLCAFFWMGLYLLRAGVRLPLAVALLAACCGGEALVQIGLGVGEDHLLSLPAAGVVLSCLAAATWLVLRLRLGVLMIALTSAVRTVSLISLERFKVAWRPYLAYLAGVLGILLARYVEQILPQSAEAAPREHLGSQLIAGTKEDIPVFKRRRRSSSVVSAEMSGCSSKSHRRTSLPCIPREQLMGHSEWDHKRGPRGSQSSGTSITVDIAVMGEAHGLITDLLADPSLPPNVCTSLRAVSNLLSTQLTFQAIHKPRVNPVTSLSENYTCSDSEESSEKDKLAIPKRLRRSLPPGLLRRVSSTWTTTTSATGLPTLEPAPVRRDRSTSIKLQEAPSSSPDSWNNPVMMTLTKSRSFTSSYAISAANHVKAKKQSRPGALAKISPLSSPCSSPLQGTPASSLVSKISAVQFPESADTTAKQSLGSHRALTYTQSAPDLSPQILTPPVICSSCGRPYSQGNPADEPLERSGVATRTPSRTDDTAQVTSDYETNNNSDSSDIVQNEDETECLREPLRKASACSTYAPETMMFLDKPILAPEPLVMDNLDSIMEQLNTWNFPIFDLVENIGRKCGRILSQVSYRLFEDMGLFEAFKIPIREFMNYFHALEIGYRDIPYHNRIHATDVLHAVWYLTTQPIPGLSTVINDHGSTSDSDSDSGFTHGHMGYVFSKTYNVTDDKYGCLSGNIPALELMALYVAAAMHDYDHPGRTNAFLVATSAPQAVLYNDRSVLENHHAAAAWNLFMSRPEYNFLINLDHVEFKHFRFLVIEAILATDLKKHFDFVAKFNGKVNDDVGIDWTNENDRLLVCQMCIKLADINGPAKCKELHLQWTDGIVNEFYEQGDEEASLGLPISPFMDRSAPQLANLQESFISHIVGPLCNSYDSAGLMPGKWVEDSDESGDTDDPEEEEEEAPAPNEEETCENNESPKKKTFKRRKIYCQITQHLLQNHKMWKKVIEEEQRLAGIENQSLDQTPQSHSSEQIQAIKEEEEEKGKPRGEEIPTQKPDQ
notes: PDE3A, human, endogenous in HeLa cells; appeared as its full length in the purification; only the catalytic domain K669-Q1102 is resolved in the cryo-EM maps; the purified band is called full length; It is a homodimer in the complex structures; source: endogenous, HeLa; in lysate (co-IP); co-purified with tagged SLFN12 by Flag-HA tandem pull-down (cryo-EM)
Question: How did the “stoichiometry N” value turn out when B1 was run?
Answer: 2
